Laboratory results taken from patent US12678457B2, “Blood-brain barrier-penetrating nanotheranostics for acute and chronic neurodegenerative diseases and the like” (THE GOVERNING COUNCIL OF THE UNIVERSITY OF TORONTO, priority 2020, dated 2026).

Test: Pharmacokinetic study of GDNF-TPN (human GDNF ELISA)
Format: in vivo, healthy CD-1 mice
Settings: after i.v. injection
Protocol: Healthy CD-1 mice were randomly allocated into three treatment groups and received a single i. v. injection of GDNF-TPN, Free GDNF or saline at a matched dose of 15 mg GDNF/kg. At 0.5, 1, 2, 4, 6 and 24 hours after injection, whole blood was collected in heparinized tubes from ketamine anesthetized mice by cardiac puncture. Following perfusion with ice-cold saline via the left ventricle, the brains and organs were harvested, rinsed in PBS, weighted, snap-frozen and stored at −80° C. for further analysis. The mouse tissues were homogenized with RIPA buffer containing protease inhibitors and the GDNF was assayed using Human GDNF Elisa kit (Abcam, CA) under manufacture's protocol. […] Free GDNF was quickly eliminated from the blood within 2 hours after injection.

B1: glial cell line-derived neurotrophic factor (protein, UniProt P39905 78-211, looked up)
Glial cell line-derived …: SPDKQMAVLPRRERNRQAAAANPENSRGKGRRGQRGKNRGCVLTAIHLNVTDLGLGYETKEELIFRYCSGSCDAAETTYDKILKNLSRNRRLVSDKVGQACCRPIAFDDDLSFLDDNLVYHILRKHSAKRCGCI
notes: Human GDNF, free protein solution used as comparator
- Time to elimination from the blood: ≤ 2 h
